{"source": "paper doi:10.1101/2021.08.22.457263", "about": "“Reconstitution of surface lipoprotein translocation reveals Slam as an outer membrane translocon in Gram-negative bacteria” (bioRxiv, 2021)", "molecular_target": "T1, M. catarrhalis transferrin binding protein B with C-terminal flag-tag (Mcat TbpB-flag) (Moraxella catarrhalis, UniProt P0DTW7 21-706, lipidated)", "T1 sequence": "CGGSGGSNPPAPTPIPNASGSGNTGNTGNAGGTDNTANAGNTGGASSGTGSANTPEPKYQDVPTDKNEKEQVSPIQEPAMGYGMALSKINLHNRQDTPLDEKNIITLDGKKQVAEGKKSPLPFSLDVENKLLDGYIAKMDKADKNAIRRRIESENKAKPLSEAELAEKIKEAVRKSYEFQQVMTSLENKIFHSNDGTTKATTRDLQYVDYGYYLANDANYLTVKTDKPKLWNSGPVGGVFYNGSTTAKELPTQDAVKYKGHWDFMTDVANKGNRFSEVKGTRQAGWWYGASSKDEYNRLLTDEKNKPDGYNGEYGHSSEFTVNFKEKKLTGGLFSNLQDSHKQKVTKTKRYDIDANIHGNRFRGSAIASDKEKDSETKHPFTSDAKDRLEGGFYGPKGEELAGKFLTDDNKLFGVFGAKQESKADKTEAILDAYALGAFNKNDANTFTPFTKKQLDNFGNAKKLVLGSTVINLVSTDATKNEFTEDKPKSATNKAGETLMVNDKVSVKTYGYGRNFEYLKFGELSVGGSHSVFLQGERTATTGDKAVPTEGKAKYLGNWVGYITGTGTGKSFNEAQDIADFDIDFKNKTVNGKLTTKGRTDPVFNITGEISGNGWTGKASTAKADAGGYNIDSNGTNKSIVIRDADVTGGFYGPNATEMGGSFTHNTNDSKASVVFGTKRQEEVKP", "test": "cell-based or functional assay"}
{"binder": "His-tagged E. coli Skp, purified (natural protein, UniProt P0AEU7 21-161, looked up) ADKIAIVNMGSLFQQVAQKTGVSNTLENEFKGRASELQRMETDLQAKMKKLQSMKAGSDRTKLEKDVMAQRQTFAQKAQAFEQDRARRSNEERGKLVTRIQTAVKSVANSQDIDLVVDANAVAYNSSDVKDITADVLKQVK", "values": [{"measurement": "protection of urea-unfolded purified TbpB from proteinase K with empty liposomes, Skp added against SurA added", "value": 2, "unit": "fold"}]}
